This is an account of results in patent publication US20180155451A1 (published 2018).

The target in assay [1] is T1, FcγRIIIa extracellular domain with C-terminal His tag (human, UniProt P08637 17-208).
T1 construct: extracellular domain; also called FcgRIIIa; CD16A
The experiment in a line: SPR (Biacore), antibody captured, FcγRIIIa as analyte, 1:1 Langmuir kinetic fit. The procedure:
(§1) Analysis of interaction between objective antibody and the FcγR was carried out using Biacore T100 (GE Healthcare). HBS-EP+ (GE Healthcare) was used as the running buffer, and the measurement temperature was set to 25° C. Chips produced by immobilizing the antigen peptide by the amine coupling method to a Series S Sencor Chip CM5 (GE Healthcare), or alternatively, chips produced by allowing preliminarily biotinylated antigen peptides to interact with and immobilize onto a Series S Sensor Chip SA (certified) (GE Healthcare) were used. Antibodies of interest were captured onto an antigen peptide-immobilized chip, and allowed to interact to each FcγR diluted with running buffer. To regenerate and repeatedly use the chip, the antibodies captured on the chip were washed off by reacting 10 mM glycine-HCl, pH 1.5.
(§2) The FcγR-binding activity of each antibody was assessed primarily using as an indicator the FcγR-binding activity and dissociation constant for FcγR.

Assay [2] concerns the target T1, FcγRIIIa extracellular domain with …. Described as above. The gist of the method:
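Biacore T100 at 25° C in HBS-EP+; antibodies captured on antigen-peptide chips (amine-coupled CM5 or biotinylated peptide on SA), with FcγR in running buffer flowed over.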
This is another data set of the same source.

Assay [3] shares this target. The experiment in a line: SPR (Biacore), ratio of KD values for FcγRIIIa. The procedure: as §1
Assay [4] shares this target. The experiment in a line: SPR (Biacore), antibody captured, FcγRIIIa as analyte, 1:1 Langmuir kinetic fit.
Text: (§3) First, it was considered which H chain should be introduced with Y296W. GpH7-TA52 (SEQ ID NO: 44) resulting from the introduction of the mutation Y296W into GpH7-TA7 was constructed, and expressed and prepared in combination with GpH7-B78 according to the method described in Reference Example 1. Furthermore, GpH7-TA58 (SEQ ID NO: 45) resulting from the introduction of Y296W into GpH7-B78 was constructed, and expressed and prepared in combination with GpH7-TA22 according to the method described in Reference Example 1. To assess the effects of combinations with Y296W, the prepared antibodies were compared for the FcγRIIIa-binding activity according to the method described in Reference Example 2 (Table 16).
as §1, §2
This is another data set of the same source.

Assay [5] shares this target. The assay can be described thus: SPR (Biacore), ratio of KD values for FcγRIIIa. This is another data set of the same source. (In SPR one partner is held on a chip, and binding of the other changes the refractive index at the surface.)
The target is the same in assay [6]. The experiment in a line: SPR (Biacore), ratio of KD values for FcγRIIIa.
Text: as §3, §1
The source holds these as a separate data set.

Assay [7] has as its target T2, FcγRIIIa (human, UniProt P08637 17-208).
T2 construct: extracellular domain; The protein is soluble, His-tagged, and was expressed in FreeStyle293 cells; also called FcgRIIIa; CD16A; not shown: His tag attached to the C terminus
The assay can be described thus: SPR (Biacore); KD of GpH7-TA7/GpH7-B78/GpL16-k0 for FcγRIIIa divided by the KD of this antibody. As to the method: (§4) Then, K334G was also assessed in the same manner. GpH7-TA40 (SEQ ID NO: 47) resulting from the introduction of K334G into GpH7-TA7 was constructed, and expressed and prepared in combination with GpH7-B78 according to the method described in Reference Example 1. Furthermore, GpH7-TA50 (SEQ ID NO: 48) resulting from the introduction of K334G into GpH7-B78 was constructed, and expressed and prepared in combination with GpH7-TA7 according to the method described in Reference Example 1. To assess the effect of combinations with K334G, the prepared antibodies were compared for the FcγRIIIa binding according to the method described in Reference Example 2 (Table 18).
as §1, with “To regenerate and repeatedly use the chip, the antibodies captured on the chip were washed off by reacting 10 mM glycine-HCl, pH 1.5.” left out

In assay [8] the target is T2, FcγRIIIa. The experiment in a line: SPR (Biacore T100); antibody captured on an antigen peptide chip, FcγRIIIa as analyte; 1:1 Langmuir kinetic fit. As to the method:
as §4, §1

Assay [9] concerns the target T1, FcγRIIIa extracellular domain with …. The assay can be described thus: SPR (Biacore), ratio of KD values for FcγRIIIa.
Text: (§5) Then, GpH7-TA54 (SEQ ID NO: 46) resulting from the introduction of Y296W into GpH7-TA22 was constructed, and expressed and prepared in combination with GpH7-B78 according to the method described in Reference Example 1. Furthermore, GpH7-TA58 (SEQ ID NO: 45) resulting from the introduction of Y296W into GpH7-B78 was constructed, and expressed and prepared in combination with GpH7-TA22 according to the method described in Reference Example 1. To assess the effect of combination with Y296W, the prepared antibodies were compared for the FcγRIIIa-binding activity according to the method described in Reference Example 2 (Table 17).
as §1
This is another data set of the same source.

The target is the same in assay [10]. The assay can be described thus: SPR (Biacore), antibody captured, FcγRIIIa as analyte, 1:1 Langmuir kinetic fit.
Text: as §5, §1, §2
This is another data set of the same source.

Another assay has as its target T3, FcγRIa (human, UniProt P12314 16-292).
T3 construct: extracellular domain; also called FcgRIa; FcgRI; not shown: His tag attached to the C terminus
The experiment in a line: SPR (Biacore4000), kinetic analysis. As to the method: The variants described above were assessed for their binding to FcγR according to the method described in Reference Example 8.
Analysis of interaction between obj ective antibody and the FcγR was carried out using Biacore T100 (GE Healthcare), Biacore T200, Biacore A100, and Biacore 4000. HBS-EP+ (GE Healthcare) was used as the running buffer, and the measurement temperature was set to 25° C. Chips produced by immobilizing the antigen peptide by the amine coupling method to a Series S sensor Chip CM5 (GE Healthcare), chips produced by allowing preliminarily biotinylated antigen peptides to interact with and immobilize onto a Series S Sensor Chip SA (certified) (GE Healthcare), chips produced by immobilizing Protein L (ACTIGEN, BioVision) to Series S Sencor Chip CM5 (GE Healthcare), or chips produced by immobilizing Protein A/G (Thermo Scientific) to Series S Sencor Chip CM5 (GE Healthcare) were used. Antibodies of interest were captured onto these chips, and allowed to interact to each FcγR diluted with running buffer. To regenerate and repeatedly use the chip, the antibodies captured onto the chip were washed off by reacting 10 mM glycine-HCl, pH 1.5.

The target of the next assay is T4, FcγRIIIa F (human, UniProt P08637 17-208).
T4 construct: extracellular domain; also called FcgRIIIa F; FcgRIIIaF; not shown: His tag attached to the C terminus
T4 sequence (P08637 17-208): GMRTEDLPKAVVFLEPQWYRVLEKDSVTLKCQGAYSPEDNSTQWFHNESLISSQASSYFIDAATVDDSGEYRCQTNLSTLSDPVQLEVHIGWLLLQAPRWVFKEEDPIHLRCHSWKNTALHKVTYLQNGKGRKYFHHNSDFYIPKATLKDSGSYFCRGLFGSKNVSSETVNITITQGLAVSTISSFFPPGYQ
The experiment in a line: SPR (Biacore), KD.

A further assay deals with T5, FcγRIIIa V (human, UniProt P08637 17-208).
T5 construct: extracellular domain; also called FcgRIIIa V; FcgRIIIaV; not shown: His tag attached to the C terminus
T5 sequence (P08637 17-208 F176V limits assumed): as the sequence (P08637 17-208) above, with F160V counted along it
The assay can be described thus: SPR (Biacore), KD.

Changes are numbered by the printed parent chain. Names and notes keep the numbering of the source. Like-named read-outs stand apart in the source and are kept apart here.

T1 sequence (P08637 17-208): as the sequence (P08637 17-208) above
T2 sequence (P08637 17-208): as above
T3 sequence (P12314 16-292): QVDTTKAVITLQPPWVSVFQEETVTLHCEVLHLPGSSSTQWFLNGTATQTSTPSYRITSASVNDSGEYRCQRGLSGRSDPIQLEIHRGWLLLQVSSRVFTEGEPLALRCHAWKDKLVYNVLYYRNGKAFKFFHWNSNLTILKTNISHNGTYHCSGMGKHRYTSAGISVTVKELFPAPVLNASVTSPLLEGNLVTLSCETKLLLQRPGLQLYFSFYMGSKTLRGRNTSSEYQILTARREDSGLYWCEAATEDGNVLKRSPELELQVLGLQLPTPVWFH

B1: GpH7-TA7/GpH7-B78/GpL16-k0 (antibody, human IgG1, kappa)
heavy 1: QVQLVQSGAEVKKPGASVTVSCKASGYTFTDYEMHWIRQPPGEGLEWIGAIDPKTGDTAYSESFQDRVTLTADKSTSTAYMELSSLTSEDTAVYYCTRFYSYTYWGQGTLVTVSSASTKGPSVFPLAPSSKSTSGGTAALGCLVKDYFPEPVTVSWNSGALTSGVHTFPAVLQSSGLYSLSSVVTVPSSSLGTQTYICNVNHKPSNTKVDKKVEPKSCDKTHTCPPCPAPEYLWGPSVFLFPPKPKDTLMISRTPEVTCVVVDVSHEDPEVKFNWYVDGVEVHNAKTKPREEQYNATYRVVSVLTVLHQDWLNGKEYKCKVSNKALPAPIEKTISKAKGQPREPQVYTLPPSRKELTKNQVSLTCLVKGFYPSDIAVEWESNGQPENNYKTTPPVLDSDGSFFLYSKLTVDKSRWQQGNVFSCSVMHEALHNRYTQKSLSLSP
heavy 2: B1 heavy 1 with Y232L, W234G, S237D, A296S, A328L, I330E, K354D, R433H, K437E
light: DIVMTQSPLSLPVTPGEPASISCQASESLVHSNRNTYLHWYLQKPGQSPQLLIYKVSNRFSGVPDRFSGSGSGTDFTLKISRVEAEDVGVYYCSQNTHVPPTFGQGTKVEIERTVAAPSVFIFPPSDEQLKSGTASVVCLLNNFYPREAKVQWKVDNALQSGNSQESVTEQDSKDSTYSLSSTLTLSKADYEKHKVYACEVTHQGLSSPVTKSFNRGEC
notes: Heterodimerized anti-glypican-3 IgG1 variant: L234Y/G236W/S298A in one H chain, S239D/A330L/I332E in the other
As usually defined, the Kd is the concentration at which binding is half-saturated. For the molecule B1, the Kd in [1] came out at 4.1 nM; in assay [2] it was 4.7 nM; in assay [4], 4.1 nM. The “KD ratio (KD of GpH7-TA7/GpH7-B78/GpL16-k0 divided by KD of the antibody)” value in assay [3] and in [6] was 1 fold each time. In addition, in [5], the “KD ratio 1 (KD of GpH7-G1d/GpL16-k0 divided by KD of the antibody)” value was 261 fold. Also, the “KD ratio 2 (KD of GpH7-A5/GpH7-B3/GpL16-k0 divided by KD of the antibody)” value in assay [5] was found to be 347 fold.

B2: GpH7-TA40/GpH7-B78/GpL16-k0 (antibody, human IgG1, kappa)
heavy 1: B1 heavy 1 with K332G
heavy 2: B1 heavy 1 with Y232L, W234G, S237D, A296S, A328L, I330E, K354D, R433H, K437E
light: B1 light
notes: Heterodimerized anti-glypican-3 IgG1 antibody; K334G is in the same H chain as L234Y/G236W/S298A; also called TA40/B78
As for B2, in the assay with FcγRIIIa [7], the KD ratio is 0.5. Besides, the Kd in the assay with FcγRIIIa [8] worked out at 7.5 nM.

B3: GpH7-TA7/GpH7-TA50/GpL16-k0 (antibody, human IgG1, kappa)
heavy 1: B1 heavy 1
heavy 2: B1 heavy 1 with Y232L, W234G, S237D, A296S, A328L, I330E, K332G, K354D, R433H, K437E
light: B1 light
notes: Heterodimerized anti-glypican-3 IgG1 antibody; also called TA7/TA50
In the case of B3, the KD ratio in the assay with FcγRIIIa [7] stood at 1.2. In addition, the Kd with FcγRIIIa [8] was determined as 3.4 nM.

B4: GpH7-TA22/GpH7-B78/GpL16-k0 (antibody, human IgG1, kappa)
heavy 1: B1 heavy 1 with S237D
heavy 2: B1 heavy 1 with Y232L, W234G, S237D, A296S, A328L, I330E, K354D, R433H, K437E
light: B1 light
notes: Heterodimerized anti-glypican-3 IgG1 variant
Regarding B4, the “KD ratio (KD of GpH7-TA22/GpH7-B78/GpL16-k0 divided by KD of the antibody)” value in assay [9] is 1 fold. Besides, the Kd in [1] and in [10] was 1.3 nM throughout. Also, in assay [3], the “KD ratio (KD of GpH7-TA7/GpH7-B78/GpL16-k0 divided by KD of the antibody)” value is 3.2 fold.

B5: H240-Kn192/H240-Hl204/L73-k0 (antibody, human IgG1, kappa)
heavy 1: QDQLVQSGAEVKKPGASVKVSCKASGFNIKDTYIQWVRQAPGQGLEWMGRIDPLRKQTKYREKFEGRVTITADTSTNTAYMELSSLRSEDTAVYYCVRSGREFDYWGQGTLVTVSSASTKGPSVFPLAPSSKSTSGGTAALGCLVKDYFPEPVTVSWNSGALTSGVHTFPAVLQSSGLYSLSSVVTVPSSSLGTQTYICNVNHKPSNTKVDKKVEPKSCDKTHTCPPCPAPEYNWGPMVFLFPPKPKDTLMISRTPEVTCVVVDVSDEDPEVKFNWYVDGVEVHNAKTKPREKQYNATYRVVSVLTVLHQDWLNGKEYKCKVSNKDLPAPIEKTISKAKGQPREPQVCTLPPSRDELTKNQVSLWCLVKGFYPSDIAVEWESNGQPENNYKTTPPVLDSDGSFFLYSKLTVDKSRWQQGNVFSCSVMHEALHNHYTQKSLSLSP
heavy 2: QDQLVQSGAEVKKPGASVKVSCKASGFNIKDTYIQWVRQAPGQGLEWMGRIDPLRKQTKYREKFEGRVTITADTSTNTAYMELSSLRSEDTAVYYCVRSGREFDYWGQGTLVTVSSASTKGPSVFPLAPSSKSTSGGTAALGCLVKDYFPEPVTVSWNSGALTSGVHTFPAVLQSSGLYSLSSVVTVPSSSLGTQTYICNVNHKPSNTKVDKKVEPKSCDKTHTCPPCPAPELLTGPSVFLFPPKPKDTLMISRTPEVTCVVVDVSHEEPEVKFNWYVDGVEVHNAKTKPREEQYNSTYRVVSVLTVLHQDWLNGKEYKCKVSNDALPKPEEETISKAKGQPREPQVYTLPPSRCELTKNQVSLSCAVKGFYPSDIAVEWESNGQPENNYKTTPPVLDSDGSFFLVSKLTVDKSRWQQGNVFSCSVMHEALHNHYTQKSLSLSP
light: DIQMTQSPSSLSASVGDRVTITCRASQDIHKYIAWYQQKPGQAPRLLIQYTSTLQPGVPSRFSGSGSGTDYTFTISSLQPEDIATYYCLQYEQLRTFGGGTKVEIKRTVAAPSVFIFPPSDEQLKSGTASVVCLLNNFYPREAKVQWKVDNALQSGNSQESVTEQDSKDSTYSLSSTLTLSKADYEKHKVYACEVTHQGLSSPVTKSFNRGEC
notes: Y235N/E294K in H240-Kn120; G236T/I332E in H240-Hl068
As usually defined, the koff is a measure of how fast the partners let go of each other. On to B5, for which the koff with FcγRIa is < 5e-05 s⁻¹. Also, the “fold enhancement of binding against the variant before introduction of I332E and Y235N” value amounted to 2 fold with FcγRIIIa F and 8 fold with FcγRIIIa V.
